Tested on: HAB1
Assay: Yeast two hybrid of pBD-PYR1 site saturation mutants with pACT-HAB1 on 10 μM ABA, β-galactosidase staining
Format: cell-based, Arabidopsis
Set-up: key: x: Mutations in PYR1 that disrupt ABA-induced binding to PYR1 to HAB1
Conditions: S. cerevisiae Y190, 10 μM ABA; dead = lack of visible staining in comparison to wild type control
Method in brief: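 S. cerevisiae Y190 co-expressing GAL4-DNA-binding-domain–PYR1 mutants and GAL4-activation-domain–HAB1 were spotted on SD (-Leu, -Trp) agar with 10 μM (+)-ABA for 2 days at 30° C. Colonies were chloroform-lysed and stained for β-galactosidase. Mutants lacking visible staining relative to wild type were scored as non-binding.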

Molecule	Mutations in PYR1 that disrupt ABA-induced binding to PYR1 to HAB1
N151R: PYR1 mutant (protein, UniProt O49686 1-191, looked up, variant N151R) Abscisic acid receptor PYR1: MPSELTPEERSELKNSIAEFHTYQLDPGSCSSLHAQRIHAPPELVWSIVRRFDKPQTYKHFIKSCSVEQNFEMRVGCTRDVIVISGLPANTSTERLDILDDERRVTGFSIIGGEHRLTNYKSVTTVHRFEKENRIWTVVLESYVVDMPEGRSEDDTRMFADTVVKLNLQKLATVAEAMARNSGDGSGSQVT	x
N151V: PYR1 mutant (protein, UniProt O49686 1-191, looked up, variant N151V) Abscisic acid receptor PYR1: MPSELTPEERSELKNSIAEFHTYQLDPGSCSSLHAQRIHAPPELVWSIVRRFDKPQTYKHFIKSCSVEQNFEMRVGCTRDVIVISGLPANTSTERLDILDDERRVTGFSIIGGEHRLTNYKSVTTVHRFEKENRIWTVVLESYVVDMPEGVSEDDTRMFADTVVKLNLQKLATVAEAMARNSGDGSGSQVT	x
N151W: PYR1 mutant (protein, UniProt O49686 1-191, looked up, variant N151W) Abscisic acid receptor PYR1: MPSELTPEERSELKNSIAEFHTYQLDPGSCSSLHAQRIHAPPELVWSIVRRFDKPQTYKHFIKSCSVEQNFEMRVGCTRDVIVISGLPANTSTERLDILDDERRVTGFSIIGGEHRLTNYKSVTTVHRFEKENRIWTVVLESYVVDMPEGWSEDDTRMFADTVVKLNLQKLATVAEAMARNSGDGSGSQVT	x
N151F: PYR1 mutant (protein, UniProt O49686 1-191, looked up, variant N151F) Abscisic acid receptor PYR1: MPSELTPEERSELKNSIAEFHTYQLDPGSCSSLHAQRIHAPPELVWSIVRRFDKPQTYKHFIKSCSVEQNFEMRVGCTRDVIVISGLPANTSTERLDILDDERRVTGFSIIGGEHRLTNYKSVTTVHRFEKENRIWTVVLESYVVDMPEGFSEDDTRMFADTVVKLNLQKLATVAEAMARNSGDGSGSQVT	x
N151D: PYR1 mutant (protein, UniProt O49686 1-191, looked up, variant N151D) Abscisic acid receptor PYR1: MPSELTPEERSELKNSIAEFHTYQLDPGSCSSLHAQRIHAPPELVWSIVRRFDKPQTYKHFIKSCSVEQNFEMRVGCTRDVIVISGLPANTSTERLDILDDERRVTGFSIIGGEHRLTNYKSVTTVHRFEKENRIWTVVLESYVVDMPEGDSEDDTRMFADTVVKLNLQKLATVAEAMARNSGDGSGSQVT	x
N151G: PYR1 mutant (protein, UniProt O49686 1-191, looked up, variant N151G) Abscisic acid receptor PYR1: MPSELTPEERSELKNSIAEFHTYQLDPGSCSSLHAQRIHAPPELVWSIVRRFDKPQTYKHFIKSCSVEQNFEMRVGCTRDVIVISGLPANTSTERLDILDDERRVTGFSIIGGEHRLTNYKSVTTVHRFEKENRIWTVVLESYVVDMPEGGSEDDTRMFADTVVKLNLQKLATVAEAMARNSGDGSGSQVT	x
N151C: PYR1 mutant (protein, UniProt O49686 1-191, looked up, variant N151C) Abscisic acid receptor PYR1: MPSELTPEERSELKNSIAEFHTYQLDPGSCSSLHAQRIHAPPELVWSIVRRFDKPQTYKHFIKSCSVEQNFEMRVGCTRDVIVISGLPANTSTERLDILDDERRVTGFSIIGGEHRLTNYKSVTTVHRFEKENRIWTVVLESYVVDMPEGCSEDDTRMFADTVVKLNLQKLATVAEAMARNSGDGSGSQVT	x
N151E: PYR1 mutant (protein, UniProt O49686 1-191, looked up, variant N151E) Abscisic acid receptor PYR1: MPSELTPEERSELKNSIAEFHTYQLDPGSCSSLHAQRIHAPPELVWSIVRRFDKPQTYKHFIKSCSVEQNFEMRVGCTRDVIVISGLPANTSTERLDILDDERRVTGFSIIGGEHRLTNYKSVTTVHRFEKENRIWTVVLESYVVDMPEGESEDDTRMFADTVVKLNLQKLATVAEAMARNSGDGSGSQVT	x
N151Y: PYR1 mutant (protein, UniProt O49686 1-191, looked up, variant N151Y) Abscisic acid receptor PYR1: MPSELTPEERSELKNSIAEFHTYQLDPGSCSSLHAQRIHAPPELVWSIVRRFDKPQTYKHFIKSCSVEQNFEMRVGCTRDVIVISGLPANTSTERLDILDDERRVTGFSIIGGEHRLTNYKSVTTVHRFEKENRIWTVVLESYVVDMPEGYSEDDTRMFADTVVKLNLQKLATVAEAMARNSGDGSGSQVT	x

Reference: US10919943B2, “Mutant proteins enabling agrochemical control of plant gene expression” (The Regents of the University of California, priority 2016, dated 2021)
